Laboratory results taken from patent publication US20260209363A1 (Chugai, published 2026).

T1: human soluble IL-6R (human, UniProt P08887 20-357, limits assumed)
T1 construct: Soluble form; also called sIL6R; Human IL-6R
T1 sequence (looked up): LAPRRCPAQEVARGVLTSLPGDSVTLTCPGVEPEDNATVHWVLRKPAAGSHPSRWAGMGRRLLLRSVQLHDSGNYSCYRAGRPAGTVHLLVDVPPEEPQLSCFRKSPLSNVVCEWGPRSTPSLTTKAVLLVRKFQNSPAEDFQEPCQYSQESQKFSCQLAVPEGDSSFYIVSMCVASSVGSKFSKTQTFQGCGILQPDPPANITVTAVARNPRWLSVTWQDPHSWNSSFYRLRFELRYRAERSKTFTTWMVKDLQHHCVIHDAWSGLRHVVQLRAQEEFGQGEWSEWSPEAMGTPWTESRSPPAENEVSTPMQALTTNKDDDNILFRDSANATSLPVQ

T2: Mouse MOG (R&D system) (mouse, UniProt Q61885 29-156, limits assumed)
T2 construct: also called mouse soluble MOG; soluble MOG
T2 sequence (looked up): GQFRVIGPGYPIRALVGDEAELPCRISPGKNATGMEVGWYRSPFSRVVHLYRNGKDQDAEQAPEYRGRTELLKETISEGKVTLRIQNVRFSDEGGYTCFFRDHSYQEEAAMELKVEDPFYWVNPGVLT


Experiments:
human soluble IL-6R [1] = target: T1, human soluble IL-6R; experiment: in vivo KD in mouse plasma (albumin present), from total antibody, free and bound sIL6R 5 min after sIL6R; antibody 1 mg/kg IV
Procedure: Next, free sIL6R in plasma was measured. The concentration of free sIL6R in plasma was measured on a fully automated ELISA system (Gyrolab xP workstation). First, sIL6R prepared at 23.4, 46.9, 93.8, 188, 375, 750, and 1500 ng/mL using a Protein-Free (PBS) Blocking Buffer (Thermo Scientific) was used as solutions for preparing the calibration curve. Mouse plasma samples were used in the measurements without diluting them. A solution of biotin-labeled H54 diluted to 10 micro g/mL using a Protein-Free (PBS) Blocking Buffer was used as a solution of the sIL6R-capturing molecule. Alexa Fluor (registered trademark) 647-labeled anti-human IL-6R antibody (R&D Systems) diluted to 1 micro g/mL using a Protein-Free (PBS) Blocking Buffer was used as a solution of the human IL-6R-detection molecule. PBS (pH 7.4) containing 0.05% TWEEN was used as a washing solution. The calibration curve solutions, mouse plasma samples, sIL6R-capturing molecule solution, sIL6R-detection molecule solution, and the washing solution were placed onto a PCR plate, and then the PCR plate was sealed with a plate sealer. After the PCR plate and the Bioaffy 200 disc were placed in the Gyrolab xP workstation, measurements were taken. Using the data processed by the Gyros Evaluater 3.6.2.30 software and the calibration curve concentrations, the concentration of free sIL6R in plasma was calculated by logistic regression using the XLfit 5.5.0.5 software.
Additionally, bound sIL6R in plasma was measured. The concentration of bound sIL6R in plasma was measured on an electrospray ionization mass spectrometer connected to a high-performance liquid chromatography (LC/ESI-MS/MS). First, H54//IC17 and sIL6R were mixed, and solutions for preparing the calibration curve of bound sIL6R were prepared at theoretical plasma concentrations of 0.0468, 0.467, 4.60, and 20.1 nmol/mL. The solutions for preparing the calibration curve and 1 or 2 micro L of a plasma sample were added to 75 or 150 micro g of magnetic beads (Magnosphere MS300/Carboxyl, JSR) to which anti-delta GK antibodies were solid-phased, and this was shaken at 25 degrees C. for one hour.

human soluble IL-6R [2] = target: T1, human soluble IL-6R; experiment: SPR (Biacore T200), antibody captured on Protein G, human IL-6R as analyte, 37 degrees C, no albumin
Procedure: Binding activities of the produced albumin switch molecules against human IL-6R were evaluated using Biacore T200 (Cytiva). As the running buffer, 50 mM Na Phosphate (pH 7.4), 150 mM NaCl, 0.05% Tween20 was used, and the evaluation was performed at 37 degrees C. First, Protein G (CALBIOCHEM) was used as a ligand-capturing molecule. Protein G (CALBIOCHEM) was solid-phased on a Series S Sensor Chip CM4 (Cytiva) using an Amine Coupling Kit (Cytiva). Antibody solution prepared using the running buffer was allowed to interact with this CM4 sensor chip to capture approximately 200 RU of the antibody. Human IL-6R used in the present measurement was prepared by an approach described in WO2018097307 (Example 3-2). Human IL-6R was diluted to 0, 100, and 400 nM with the running buffer, and allowed to bind to the captured antibody. The chip was regenerated using 3 M MgCl₂, and measurements were performed by repeatedly capturing the antibodies. Dissociation constant (KD) of each antibody for human IL-6R was calculated using Biacore T200 Evaluation Software 2.0. Specifically, the association rate constant ka (L/mol/s) and the dissociation rate constant kd (1/s) were calculated by global fitting of the sensorgrams obtained by measurement with the 1:1 Langmuir binding model, and the dissociation constant KD (mol/L) was calculated from these values.

Mouse MOG (R&D system) = target: T2, Mouse MOG (R&D system); experiment: SPR (Biacore T200), antibody captured by anti-human Fc antibody, mouse MOG as analyte, 25 degrees C, no albumin
Procedure: Binding activities of the antibodies produced in Example 10 against mouse MOG were assessed using Biacore T200 (Cytiva).
As the running buffer, 50 mM Na Phosphate (pH 7.4), 150 mM NaCl, 0.05% Tween 20, and 0.005% NaN₃ was used, and the assessment was performed at 25 degrees C. First, anti-human Fc antibody (Cytiva) was used as a ligand-capturing molecule. Anti-human Fc antibody (Cytiva) was solid-phased on a Series S Sensor Chip CM4 (Cytiva) using an Amine Coupling Kit (Cytiva). Antibody solutions prepared using the running buffer was allowed to interact with this CM4 sensor chip to capture approximately 480 RU of the antibody. Mouse MOG (R&D system) was diluted to 0, 10, 40, 160, and 640 nM with the running buffer, and then bound to the captured antibody. The chip was regenerated using 3 M MgCl₂, and measurements were performed by repeatedly capturing antibodies. Dissociation constant (KD) of the respective antibodies for mouse MOG was calculated using Biacore T200 Evaluation Software 2.0. Specifically, the association rate constant ka (L/mol/s) and the dissociation rate constant kd (1/s) were calculated by global fitting of the sensorgrams obtained by measurement with the 1:1 Langmuir binding model, and the dissociation constant KD (mol/L) was calculated from these values.

mouse albumin = target: T3, mouse albumin (mouse, UniProt P07724 25-608); experiment: SPR (Biacore T200), antibody captured by anti-human Fc antibody, mouse albumin as analyte, 25 degrees C
T3 construct: also called recombinant mouse Albumin; mouse serum albumin
Procedure: Binding activities of the produced antibodies against mouse albumin were evaluated using Biacore T200 (Cytiva).
As the running buffer, 50 mM Na Phosphate (pH 7.4), 150 mM NaCl, 0.05% Tween20 was used, and the evaluation was performed at 25 degrees C. First, anti-human Fc antibody (Cytiva) was used as a ligand-capturing molecule. Anti-human Fc antibody (Cytiva) was solid-phased on a Series S Sensor Chip CM4 (Cytiva) using an Amine Coupling Kit (Cytiva). Antibody solution prepared using the running buffer was allowed to interact with this CM4 sensor chip to capture approximately 120 RU of the antibody. Mouse albumin (Bioscience) was diluted to 0 and 300 nM with the running buffer and allowed to bind to the captured antibody. The chip was regenerated using 3 M MgCl₂, and measurements were performed by repeatedly capturing the antibodies. Dissociation constant (KD) of each antibody for mouse albumin was calculated using Biacore T200 Evaluation Software 2.0. Specifically, the association rate constant ka (L/mol/s) and the dissociation rate constant kd (1/s) were calculated by global fitting of the sensorgrams obtained by measurement with the 1:1 Langmuir binding model, and the dissociation constant KD (mol/L) was calculated from these values.

Kd (human soluble IL-6R [1])	Kd (human soluble IL-6R [2])	koff (human soluble IL-6R [2])	kon (human soluble IL-6R [2])	Kd (Mouse MOG (R&D system))	koff (Mouse MOG (R&D system))	kon (Mouse MOG (R&D system))	Kd (mouse albumin)	koff (mouse albumin)	kon (mouse albumin)	Binder
1.3 nM	3.41 nM	0.00141 s⁻¹	412000 M⁻¹ s⁻¹	–	–	–	–	–	–	H54//IC17 (bispecific antibody, human IgG1, kappa, Heavy chain constant regions lack the C-terminal glycine and lysine; also called anti-human IL-6R/KLH bispecific antibody) heavy 1: QVQLQESGPGLVKPSETLSLTCAVSGYSISDDQAWSWVRQPPGEGLEWIGYISYSGITNYNPSLKGRVTISRDTSKNQFSLKLSSVTAADTAAYYCARSLARTTAMDYWGEGTLVTVSSASTKGPSVFPLAPSSKSTSGGTAALGCLVEDYFPEPVTVSWNSGALTSGVHTFPAVLQSSGLYSLSSVVTVPSSSLGTQTYICNVNHKPSNTKVDERVEPKSCDKTHTCPPCPAPELRRGPSVFLFPPKPKDTLMISRTPEVTCVVVDVSHEDPEVKFNWYVDGVEVHNAKTKPREEQYNSTYRVVSVLTVLHQDWLNGKEYKCKVSNKALPAPIEKTISKAKGQPREPQVCTLPPSREEMTKNQVSLSCAVKGFYPSDIAVEWESNGQPENNYKTTPPVLDSDGSFFLVSKLTVDKSRWQQGNVFSCSVMHEALHNHYTQKSLSLSP light 1: DIQMTQSPSSLSASVGDSVTITCQASQDISSYLNWYQQKPGKAPELLIYYGSELHSGVPSRFSGSGSGTDFTFTISSLEAEDAATYYCQQGNSLPYTFGQGTKVEIERTVAAPSVFIFPPSDRKLKSGTASVVCLLNNFYPREAKVQWKVDNALQSGNSQESVTEQDSKDSTYSLSSTLTLSKADYEKHKVYACEVTHQGLSSPVTKSFNRGEC heavy 2: not shown light 2: QVQLQQSGPQLVRPGASVKISCKASGYSFTSYWMHWVNQRPGQGLEWIGMIDPSYSETRLNQKFKDKATLTVDKSSSTAYMQLSSPTSEDSAVYYCALYGNYFDYWGQGTTLTVSSASVAAPSVFIFPPSDEQLKSGTASVVCLLNNFYPREAKVQWKVDNALQSGNSQESVTEQDSKDSTYSLSSTLTLSKADYEKHKVYACEVTHQGLSSPVTKSFNRGEC
–	–	–	–	0.452 nM	6.99e-05 s⁻¹	155000 M⁻¹ s⁻¹	–	–	–	MOG//IC17 (bispecific antibody, human IgG1, kappa, also called MOG307//IC17; IC17//MOG307) heavy 1: RVTLRESGPTLVKPTQTLTLTCTFSGFSLSTSGVGVGWIRQPPGKALEWLALIFWDDDSHYSPSLKSRLTITKDTSKNQVVLTMTNMDPVDTATYYCARYYFGSGSYFPSYWYFDLWGRGTLVTVSSASTKGPSVFPLAPSSKSTSGGTAALGCLVEDYFPEPVTVSWNSGALTSGVHTFPAVLQSSGLYSLSSVVTVPSSSLGTQTYICNVNHKPSNTKVDERVEPKSCDKTHTCPPCPAPELRRGPSVFLFPPKPKDTLMISRTPEVTCVVVDVSHEDPEVKFNWYVDGVEVHNAKTKPREEQYNSTYRVVSVLTVLHQDWLNGKEYKCKVSNKALPAPIEKTISKAKGQPREPQVCTLPPSREEMTKNQVSLSCAVKGFYPSDIAVEWESNGQPENNYKTTPPVLDSDGSFFLVSKLTVDKSRWQQGNVFSCSVMHEALHNHYTQKSLSLSP light 1: not shown heavy 2: not shown light 2: QVQLQQSGPQLVRPGASVKISCKASGYSFTSYWMHWVNQRPGQGLEWIGMIDPSYSETRLNQKFKDKATLTVDKSSSTAYMQLSSPTSEDSAVYYCALYGNYFDYWGQGTTLTVSSASVAAPSVFIFPPSDEQLKSGTASVVCLLNNFYPREAKVQWKVDNALQSGNSQESVTEQDSKDSTYSLSSTLTLSKADYEKHKVYACEVTHQGLSSPVTKSFNRGEC
3.6 nM	5.21 nM	0.00133 s⁻¹	255000 M⁻¹ s⁻¹	–	–	–	14.3 nM	0.00103 s⁻¹	71800 M⁻¹ s⁻¹	ABD094(H)-H54//IC17 (bispecific antibody, human IgG1, kappa) heavy 1: LAEAKEAANAELDSYGVSDFYKRLIDKAKTVEGVEALKDAILAALPQVQLQESGPGLVKPSETLSLTCAVSGYSISDDQAWSWVRQPPGEGLEWIGYISYSGITNYNPSLKGRVTISRDTSKNQFSLKLSSVTAADTAAYYCARSLARTTAMDYWGEGTLVTVSSASTKGPSVFPLAPSSKSTSGGTAALGCLVEDYFPEPVTVSWNSGALTSGVHTFPAVLQSSGLYSLSSVVTVPSSSLGTQTYICNVNHKPSNTKVDERVEPKSCDKTHTCPPCPAPELRRGPSVFLFPPKPKDTLMISRTPEVTCVVVDVSHEDPEVKFNWYVDGVEVHNAKTKPREEQYNSTYRVVSVLTVLHQDWLNGKEYKCKVSNKALPAPIEKTISKAKGQPREPQVCTLPPSREEMTKNQVSLSCAVKGFYPSDIAVEWESNGQPENNYKTTPPVLDSDGSFFLVSKLTVDKSRWQQGNVFSCSVMHEALHNHYTQKSLSLSP light 1: DIQMTQSPSSLSASVGDSVTITCQASQDISSYLNWYQQKPGKAPELLIYYGSELHSGVPSRFSGSGSGTDFTFTISSLEAEDAATYYCQQGNSLPYTFGQGTKVEIERTVAAPSVFIFPPSDRKLKSGTASVVCLLNNFYPREAKVQWKVDNALQSGNSQESVTEQDSKDSTYSLSSTLTLSKADYEKHKVYACEVTHQGLSSPVTKSFNRGEC heavy 2: not shown light 2: QVQLQQSGPQLVRPGASVKISCKASGYSFTSYWMHWVNQRPGQGLEWIGMIDPSYSETRLNQKFKDKATLTVDKSSSTAYMQLSSPTSEDSAVYYCALYGNYFDYWGQGTTLTVSSASVAAPSVFIFPPSDEQLKSGTASVVCLLNNFYPREAKVQWKVDNALQSGNSQESVTEQDSKDSTYSLSSTLTLSKADYEKHKVYACEVTHQGLSSPVTKSFNRGEC
